# Measured values as given in article PMC5331858.
# Tests used:
# [1] = target: CD4-Sho1-SH3-ΔAY (MYTH bait) (S. cerevisiae) (UniProt P40073); assay: two-hybrid
# [2] = target: CD4-Sho1-SH3-I49A (MYTH bait) (S. cerevisiae); assay: two-hybrid
# Chain of UniProt P40073 (P40073 298-367, stated change not applied): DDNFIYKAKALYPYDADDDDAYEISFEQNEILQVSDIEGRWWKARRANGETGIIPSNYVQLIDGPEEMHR
"fold change relative to wildtype Sho1p SH3 (β-galactosidase, Miller units) [1] [fold]","fold change relative to wildtype Sho1p SH3 (β-galactosidase, Miller units) [2] [fold]",Molecule
0.3,0.2,"Fps1-N (N-terminal soluble domain of Fps1p, NubG MYTH prey) (from UniProt P23900 1-255) (domain or fragment)"
0.5,,NubG-Pbs2 (full-length Pbs2p MYTH prey) (natural protein) MEDKFANLSLHEKTGKSSIQLNEQTGSDNGSAVKRTSSTSSHYNNINADLHARVKAFQEQRALKRSASVGSNQSEQDKGSSQSPKHIQQIVNKPLPPLPVAGSSKVSQRMSSQVVQASSKSTLKNVLDNQETQNITDVNINIDTTKITATTIGVNTGLPATDITPSVSNTASATHKAQLLNPNRRAPRRPLSTQHPTRPNVAPHKAPAIINTPKQSLSARRGLKLPPGGMSLKMPTKTAQQPQQFAPSPSNKKHIETLSNSKVVEGKRSNPGSLINGVQSTSTSSSTEGPHDTVGTTPRTGNSNNSSNSGSSGGGGLFANFSKYVDIKSGSLNFAGKLSLSSKGIDFSNGSSSRITLDELEFLDELGHGNYGNVSKVLHKPTNVIMATKEVRLELDEAKFRQILMELEVLHKCNSPYIVDFYGAFFIEGAVYMCMEYMDGGSLDKIYDESSEIGGIDEPQLAFIANAVIHGLKELKEQHNIIHRDVKPTNILCSANQGTVKLCDFGVSGNLVASLAKTNIGCQSYMAPERIKSLNPDRATYTVQSDIWSLGLSILEMALGRYPYPPETYDNIFSQLSAIVDGPPPRLPSDKFSSDAQDFVSLCLQKIPERRPTYAALTEHPWLVKYRNQDVHMSEYITERLERRNKILRERGENGLSKNVPALHMGGL
